Experimental data from publication PMC7530888 (Nucleic Acids Research, 2020).

How the values were obtained:
MtbXthA [1] = assay: Effect on AP-endonuclease activity of MtbXthA; assay type: biochemical, M. tuberculosis; details: N1, MtbXthA 10 nM, added protein 5-100 nM; pH 7.8, 37°C, 10 min
[2] = assay type: physicochemical, M. tuberculosis; details: Superdex 200 increase 10/30; pH 8.0; calibrated with protein standards
[3] = Small angle X-ray scattering; assay type: physicochemical, M. tuberculosis; details: from P(r); for Dmax: BM29 ESRF, 10°C, pH 8.0
[4] = tested on: THF containing AP-DNA (N1); assay: Gel shift assay, THF AP-DNA; assay type: binding; details: N1 10 nM, MtbLigA 0-40 µM
MtbXthA [5] = assay: SEC co-elution with MtbXthA; assay type: binding, M. tuberculosis; details: Superdex 200; pH 8.0; SDS-PAGE of fractions
[6] = tested on: nicked duplex DNA substrate (L2); assay: Ligation of nicked AP-DNA with 5′p-THF; assay type: biochemical; details: L2 10 nM, MtbLigA 0.01-20 nM
[7] = tested on: nicked duplex DNA substrate (L1); assay: In vitro ligation of nicked duplex DNA; assay type: biochemical; details: L1 10 nM, MtbLigA 5 nM alone; 50 μM NAD^+, pH 7.8, 37°C, 3 min; SD ±2.5
[8] = tested on: apurinic/ apyrimidinic DNA (AP-DNA) substrate (N1); assay: AP-endonuclease assay on THF AP-DNA; assay type: biochemical; details: no MtbXthA
mimic DNA substrate (L3) = assay: Ligation of true incised abasic site mimic with 5′-dRP; assay type: biochemical; details: L3 treated with uracil DNA glycosylase; MtbLigA 0.01-20 nM
MtbXthA^ID = assay: Effect on endonuclease activity of MtbXthA^ID; assay type: biochemical, M. tuberculosis; details: N1 20 nM, MtbXthA^ID 10 nM, MtbLigA 5-100 nM

Question: With “BSA: BSA, control for macromolecular crowding [reference compound]” as the substance, how does the “effect on AP-endonuclease activity of MtbXthA” value (MtbXthA [1]) read?
Answer: The value was “exerted no effect”.

Question: For “MtbLigA+Nicked DNA: MtbLigA in complex with 27-mer nicked DNA (S1)”, which “Stoke's radii” value [2] is on record?
Answer: Its value is 3.19 nm.

Question: What about the Dmax [3] of the same substance?
Answer: The Dmax was 14.79 nm.

Question: Which results are given for “MtbLigA: M. tuberculosis NAD^+-dependent DNA ligase A, full-length”?
Answer: complex with THF AP-DNA (in words) [4]: did not form a complex with THF containing AP-DNA; interaction with MtbXthA by SEC (MtbXthA [5]): co-eluted; Stoke's radii [2]: 4.02 nm; Dmax [3]: 16.7 nm; Dmax in presence of nicked DNA ([3]; presence of nicked DNA substrate (S1)): 14.79 nm; effect on AP-endonuclease activity of MtbXthA (MtbXthA [1]): progressive decrease in product formation; ligation of nicked AP-DNA (in words) [6]: could ligate the nicked AP-DNA; DNA ligation [7]: 75%; effect on AP-DNA substrate alone (in words) [8]: no effect on the AP-DNA substrate; ligated product (in words) (mimic DNA substrate (L3)): progressive increase in the ligated product; effect on incision activity of MtbXthA^ID (MtbXthA^ID): reduction in incision activity
